Target: Methanol dehydrogenase (MDH) of Bacillus brevis S1 strain (NCIMB 12524) (Bacillus brevis S1 strain (NCIMB 12524))
Assay: cell-based or functional assay

NADH producing rate (increase of absorbance at 340 nm after methanol addition) in cell extract, against the pHY300PLK vector control: 5 times
Substance: Amd (Activator of methanol dehydrogenase), YqkG gene product of Bacillus subtilis 168 strain (from UniProt P54570 1-185)

— patent publication US20030119155A1
